Here are results for 1 molecule from US20220119534A1 (DRAGONFLY THERAPEUTICS, published 2022).

Experiment [1] addresses T1, Human CLEC12A-His (recombinant, K244 WT) (human, UniProt Q5QGZ9 65-265).
T1 construct: Made in house (Dragonfly Tx); also called hCLEC12A; hCLEC12A-His; not shown: His tag
T1 sequence: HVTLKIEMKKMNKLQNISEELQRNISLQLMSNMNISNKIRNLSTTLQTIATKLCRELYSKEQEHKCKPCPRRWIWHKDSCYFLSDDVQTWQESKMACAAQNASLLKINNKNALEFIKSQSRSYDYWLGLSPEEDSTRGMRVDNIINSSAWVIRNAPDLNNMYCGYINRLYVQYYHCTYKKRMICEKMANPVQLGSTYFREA
Nature of the experiment: SPR, two-state fit (kd1); after forced oxidation.

In experiment [2] the target is T1, Human CLEC12A-His (recombinant, K244 WT). The experiment can be described thus: SPR, two-state fit (kd1); fully purified protein after low pH hold.
For experiment [3], the target named is T2, mFc-hNKG2D (recombinant mFc-tagged human NKG2D dimer) (human, UniProt P26718 73-216).
T2 construct: extracellular domain; Made in house; not shown: mouse Fc tag
T2 sequence (looked up): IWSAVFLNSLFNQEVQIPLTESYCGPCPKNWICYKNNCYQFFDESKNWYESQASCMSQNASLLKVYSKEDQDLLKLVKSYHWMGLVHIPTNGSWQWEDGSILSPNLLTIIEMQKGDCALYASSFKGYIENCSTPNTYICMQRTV
Nature of the experiment: SPR 37C, steady state fit, average.

B1: AB0089 TriNKET (bispecific antibody, human IgG1, kappa)
chain: QLQLQESGPGLVKPSETLSLTCTVSGFSLTNYGLHWIRQPPGKCLEWIGVIWVGGATDYNPSLKSRVTISVDTSKNQFSLKLSSVQAADTAVYYCAKGDYGDTLDYWGQGTLVTVSSGGGGSGGGGSGGGGSGGGGSDIQMTQSPSSLSASVGDRVTITCHASQNINFWLSWYQQKPGKAPKLLIYEASNLHTGVPSRFSGSGSGTDFTLTISSLQPEDFATYYCQQSHSYPLTFGCGTKLEIKGSDKTHTCPPCPAPELLGGPSVFLFPPKPKDTLMISRTPEVTCVVVDVSHEDPEVKFNWYVDGVEVHNAKTKPREEQYNSTYRVVSVLTVLHQDWLNGKEYKCKVSNKALPAPIEKTISKAKGQPREPRVYTLPPCRDELTKNQVSLTCLVKGFYPSDIAVEWESNGQPENNYKTTPPVLVSDGSFTLYSKLTVDKSRWQQGNVFSCSVMHEALHNHYTQKSLSLSPG
heavy: EVQLVESGGGLVKPGGSLRLSCAASGFTFSSYSMNWVRQAPGKGLEWVSSISSSSSYIYYADSVKGRFTISRDNAKNSLYLQMNSLRAEDTAVYYCARGAPIGAAAGWFDPWGQGTLVTVSSASTKGPSVFPLAPSSKSTSGGTAALGCLVKDYFPEPVTVSWNSGALTSGVHTFPAVLQSSGLYSLSSVVTVPSSSLGTQTYICNVNHKPSNTKVDKKVEPKSCDKTHTCPPCPAPELLGGPSVFLFPPKPKDTLMISRTPEVTCVVVDVSHEDPEVKFNWYVDGVEVHNAKTKPREEQYNSTYRVVSVLTVLHQDWLNGKEYKCKVSNKALPAPIEKTISKAKGQPREPQVCTLPPSRDELTENQVSLTCLVKGFYPSDIAVEWESNGQPENNYKTTPPVLDSDGSFFLYSWLTVDKSRWQQGNVFSCSVMHEALHNHYTQKSLSLSPG
light: DIQMTQSPSSVSASVGDRVTITCRASQGISSWLAWYQQKPGKAPKLLIYAASSLQSGVPSRFSGSGSGTDFTLTISSLQPEDFATYYCQQGVSFPRTFGGGTKVEIKRTVAAPSVFIFPPSDEQLKSGTASVVCLLNNFYPREAKVQWKVDNALQSGNSQESVTEQDSKDSTYSLSSTLTLSKADYEKHKVYACEVTHQGLSSPVTKSFNRGEC
notes: F3' format heterodimer of three chains; human IgG1 Fc with EW-RVT and Y349C/S354C mutations; also called AB0089 Lot AB0089-002; CLEC12A TriNKET AB0089
For B1, the koff was found to be 0.0481 s⁻¹ in experiment [1] and 0.0276 s⁻¹ in experiment [2]. Moreover, the Kd in experiment [3] amounted to 884 nM.
